The record followed here is PMC9428257.

To fix the notation:
B1: yeast-displayed wild-type sBCMA (human BCMA extracellular domain, Met1-Ala54) [human] / human APRIL (a proliferation-inducing ligand) [human] (parent)
chain 1: MLQMAGQCSQNEYFDSLLHACIPCQLRCSSNTPPLTCQRYCNASVTNSVKGTNA
chain 2: AVLTQKQKKQHSVLHLVPINATSKDDSDVTEVMWQPALRRGRGLQAQGYGVRIQDAGVYLLYSQVLFQDVTFTMGQVVSREGQGRQETLFRCIRSMPSHPDRAYNSCYSAGVFHLHQGDILSVIIPRARAKLNLSPHGTFLGFVKL

The Kd is the equilibrium constant for the complex coming apart.

The variants in one assay derive from B1. In words: flow cytometry binding of yeast-displayed sBCMA. Particulars: with human APRIL (a proliferation-inducing ligand) [human]; parent: 262. On the technique in general: Flow cytometry measures light scatter and fluorescence of single cells or particles in a stream.
chain 1 MLQMAGQCSQNEYFDGLLYACIPCQLRCSSNTPPLACQRYCNASVTNSVKGTNA [chain 1 S16G H19Y T36A]: the screen value worked out at 325. For the variant chain 1 MLQMAGQCSQNEYFDGLLHACIPCQLRCSSNTPPLACQRYCNASVTNSVKGTNA [chain 1 S16G T36A], the screen value was 102. As to chain 1 MLQMAGQCPQDEYFDGLLYACIPCQLRCSSNTPPLACQRYCNASVTSSVKGTDA [chain 1 S9P N11D S16G H19Y T36A N47S N53D], the screen value came out at 1310.

Variants of B1 are the subject of the next assay. In words: flow cytometry binding curve of yeast-displayed sBCMA. Particulars: with human APRIL (a proliferation-inducing ligand) [human].
Consider chain 1 MLQMAGQCSQNEYFDGLLYACIPCQLRCSSNTPPLACQRYCNASVTNSVKGTNA [chain 1 S16G H19Y T36A], for which the dissociation constant Kd was found to be 0.018 nM and the screen value was 5860 A.U. For chain 1 MLQMAGQCSQNEYFDGLLYACIPCQLRCSSNTPPLACQRYCNASVTNSVKGTDA [chain 1 S16G H19Y T36A N53D], the dissociation constant (Kd) worked out at 0.008 nM.
